The results in this text go back to US20170137467A1 (CHROMOTEK, published 2017).

Holding throughout (test): peptide library pulldown on immobilized Nb, LC-MS of supernatant; ratio vs GFP-Nb control (1 = not captured, 0 = captured)
For one experiment, the target named is T1, BC2T S8P library peptide (human).
T1 construct: also called BC2TS8X: P
T1 peptide: Ac-PDRKAAVPHWQQ-NH2
The procedure, abridged: (§1)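 Unbound peptide left in supernatant after 1 h pulldown in PBS/0.01% CHAPS measured by reversed-phase LC-MS (8–30% eluent B gradient, 20 min).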

The target of another experiment is T2, BC2T S8W library peptide (human).
T2 construct: also called BC2TS8X: W
T2 peptide: Ac-PDRKAAVWHWQQ-NH2
In short, it runs like this:
as §1

The target in the next experiment is T3, BC2T H9V library peptide (human).
T3 peptide: Ac-PDRKAAVSVWQQ-NH2
In short, it runs like this: as §1

For experiment [1], the target named is T4, BC2T H9(I/L) library peptide, version 2 (N-terminal acetyl, C-terminal amide).
T4 construct: Ile and Leu versions are isobaric; two versions resolved but not assigned; also called I/L2
In short, it runs like this:
as §1

The target of the next experiment is T5, BC2T H9P library peptide (human).
T5 peptide: Ac-PDRKAAVSPWQQ-NH2
In short, it runs like this: as §1

For the next experiment, the target named is T6, BC2T H9T library peptide (human).
T6 peptide: Ac-PDRKAAVSTWQQ-NH2
In short, it runs like this: as §1

A further experiment deals with T7, BC2T H9K library peptide (human).
T7 peptide: Ac-PDRKAAVSKWQQ-NH2
In short, it runs like this:
as §1

The next experiment has as its target T8, BC2T H9D library peptide (human).
T8 peptide: Ac-PDRKAAVSDWQQ-NH2
The procedure, abridged: as §1

For another experiment, the target named is T9, BC2T H9E library peptide (human).
T9 peptide: Ac-PDRKAAVSEWQQ-NH2
In short, it runs like this:
as §1

The target of experiment [2] is T10, BC2T W10G library peptide (human).
T10 construct: also called BC2TW10X: G
T10 peptide: Ac-PDRKAAVSHGQQ-NH2
In short, it runs like this:
as §1

In experiment [3] the target is T11, BC2T W10(I/L) library peptide, version 1 (N-terminal acetyl, C-terminal amide).
T11 construct: Ile and Leu versions are isobaric; two versions resolved but not assigned; also called BC2TW10X: I/L1
The procedure, abridged:
as §1

For experiment [4], the target named is T12, BC2T W10P library peptide (human).
T12 construct: also called BC2TW10X: P
T12 peptide: Ac-PDRKAAVSHPQQ-NH2
The procedure, abridged: as §1

For experiment [5], the target named is T13, BC2T W10Q library peptide (human).
T13 construct: also called BC2TW10X: Q
T13 peptide: Ac-PDRKAAVSHQQQ-NH2
In short, it runs like this: as §1

Experiment [6] has as its target T14, BC2T W10H library peptide (human).
T14 construct: also called BC2TW10X: H
T14 peptide: Ac-PDRKAAVSHHQQ-NH2
The procedure, abridged:
as §1

The target in experiment [7] is T15, BC2T Q11(I/L) library peptide, version 2 (N-terminal acetyl, C-terminal amide).
T15 construct: Ile and Leu versions are isobaric; two versions resolved but not assigned; also called I/L2
The procedure, abridged:
as §1

Experiment [8] concerns the target T16, BC2T Q11P library peptide (human).
T16 peptide: Ac-PDRKAAVSHWPQ-NH2
The procedure, abridged: as §1

For experiment [9], the target named is T17, BC2T Q11T library peptide (human).
T17 peptide: Ac-PDRKAAVSHWTQ-NH2
The procedure, abridged:
as §1

The target in experiment [10] is T18, BC2T Q11H library peptide (human).
T18 peptide: Ac-PDRKAAVSHWHQ-NH2
The procedure, abridged: as §1

Experiment [11] concerns the target T19, BC2T Q12(I/L) library peptide, version 2 (N-terminal acetyl, C-terminal amide).
T19 construct: Ile and Leu versions are isobaric; two versions resolved but not assigned; also called I/L2
In short, it runs like this:
as §1

Another experiment deals with T20, BC2T S8G library peptide (human).
T20 construct: also called BC2TS8X: G
T20 peptide: Ac-PDRKAAVGHWQQ-NH2
In short, it runs like this: as §1

B1: BC2-Nb(R106E) (VHH)
VHH: QVQLVESGGGLVQPGGSLTLSCTASGFTLDHYDIGWFRQAPGKEREGVSCINNSDDDTYYADSVKGRFTIFMDNAKDTVYLQMNSLKPEDTAIYYCAEARGCKRGEYEYDFWGQGTQVTVSS
notes: Headlock mutant; immobilized on beads in the library pulldown
Take B1: the ratio in the experiment with BC2T S8P library peptide amounted to 1; with BC2T S8W library peptide it was 0.9; with BC2T H9V library peptide, 0.5; in experiment [1], 0.2; with BC2T H9P library peptide it was 0.9; in the experiment with BC2T H9T library peptide, 0.4. Moreover, the ratio was 0.2 in the experiment with BC2T H9K library peptide; 0.4 with BC2T H9D library peptide; 0.5 in the experiment with BC2T H9E library peptide; 1.2 in [2]; 1 in [3]; 1.1 in experiment [4]. The ratio in [5] worked out at 1.2; in experiment [6] it was 1.2; in experiment [7] it was 0.4; in experiment [8], 0.9; in experiment [9] it was 0.2; in experiment [10], 0.2. Also, the ratio in experiment [11] came out at 0.1; with BC2T S8G library peptide it was 0.8.
